Measured values reported in patent publication US20260184811A1 (CEREIUS, published 2026).
Read-outs that look alike come from different tables or passages of the source.

Tests used:
[1] = target: T1, human HER2 receptor (human, UniProt P04626); assay: ELISA on human HER2 receptor, purified VHH titrated, A450
[2] = target: T1, human HER2 receptor; assay: as above; remark: listed apart in the source
[3] = target: T1, human HER2 receptor; assay: as above; remark: listed apart in the source
[4] = target: T1, human HER2 receptor; assay: as above; remark: listed apart in the source
[5] = target: T1, human HER2 receptor; assay: ELISA specificity panel on ErbB family receptors, VHH titrated, A450
[6] = target: T1, human HER2 receptor; assay: as above; remark: listed apart in the source
[7] = target: T1, human HER2 receptor; assay: as above; remark: listed apart in the source
[8] = target: T1, human HER2 receptor; assay: ELISA on human HER2 receptor, purified VHH titrated, A450; remark: listed apart in the source
[9] = target: T1, human HER2 receptor; assay: as above; remark: listed apart in the source
[10] = target: T1, human HER2 receptor; assay: as above; remark: listed apart in the source
[11] = target: T1, human HER2 receptor; assay: as above; remark: listed apart in the source

B1: VHH_107 (VHH)
VHH: QVQLVESGGGLVQPGGSLRLSCAASGSIFSINVMGWYRQAPGMQRQLVAIITSGGSTNYADSVKGRFTVSRDNAKNTLYLRMNSLKPEDTAVYYCATIHVRESTWYYAYWGQGTQVTVSS
notes: also called VHH ID 107
EC50 (read off the curve) [1]: ~3 nM

B2: VHH_110 (VHH)
VHH: QVQLVESGGGSVQLGGSLRLSCAVSGLGFSALAMGWFRQAPGKERERVAAISRTGGTTYYTDSVKGRFTISRDNGKNMVYLQMNSLKPEDAAVYYCASRYTALLSTTARGYDYWGQGTQVTVSS
notes: also called VHH ID 110
binding result [2]: no binding

B3: VHH_118 (VHH)
VHH: EVQLVESGGGLVQPGGSLRLSCAASEFTFSNYAMSWVRQAPGKGLEWVSAINWSGGITTYADSVKGRFTISRDNAKNTLHLQMNSLKPEDTAVYYCAKGWGTTTRDTGLLSQGTLVTVSS
notes: also called VHH ID 118
EC50 (read off the curve) [3]: ~6 nM

B4: VHH_123 (VHH)
VHH: QVQLVESGGGLVQAGGSLRLSCAASGRTFNSYFYTMAWFRQAPGKEREFVARMNWNADSTYHADSVKGRFTISRENTVYLQMNSLEPEDTAVYYCAAKSISAPKYDYWGQGTQVTVSS
notes: also called VHH ID 123
binding result [4]: no binding

B5: VHH_130 (VHH)
VHH: EVQLVESGGGLVQAGGSLRLSCAASGITFSINTMGWYRQAPGKQRELVALISSIGDTYYADSVRGRFTISRDNAKNTVYLQMNSLKPEDTAVYYCRRFRTAAQGTDYWGQGTQVTVSS
notes: also called VHH ID 130
EC50 (read off the curve) [5]: ~1 nM
EC50 (read off the curve) [6]: ~1 nM
EC50 (read off the curve) [7]: ~1 nM

B6: VHH_134 (VHH)
VHH: EVQLVESGGGLVQAGGSLRLSCAASGITFSINTMGWYRQAPGKQRELVALISSIGDTYYADSVRGRFTISRDNARNTVYLQMNSLRPEDTAVYYCRRFRTAAQGTDYWGQGTQVTVSS
notes: also called VHH ID 134
EC50 (read off the curve) [8]: ~1 nM

B7: VHH_129 (VHH)
VHH: EVQLVESGGGLVQAGGSLRLSCAASGITFSINTMGWYRQAPGKQRELVALISSIGDTYYADSVKGRFTISRDNAKNTVYLQMNSLKPEDTAVYYCRRFRTAAQGTDYWGQGTQVTVSS
notes: also called VHH ID 129
EC50 (read off the curve) [9]: ~1 nM

B8: VHH_109 (VHH)
VHH: QVQLVESGGGLVQPGGSLRLSCEASGFTFDDYGMSWVRQAPGKGLEWVSGITWNGGNPNYADSVKGRFTISRDNAKRTLYLQMNSLKAEDTAVYYCQRGYSRGYMYWGQGTQVTVSS
notes: also called VHH ID 109
EC50 (read off the curve) [10]: ~10 nM

B9: VHH_108 (VHH)
VHH: QVQLVESGGGLVQAGGSLRLSCAASGRTFSSYAMGWFRQAPGLEREFVAAIARGGVSTGYADSVKGRFAISRDNAKNMVYLQMNSLKPEDTAVYYCATYFWGSPHYWGQGTQVTVSS
notes: also called VHH ID 108
EC50 (read off the curve) [11]: ~6 nM
